# From article PMC3656097
# Like-named read-outs stand apart in the source and are kept apart here.
# What was measured:
# [1] = molecular target: FGF9 (UniProt P31371); experiment: SPR; BIAcore 3000; […] (31.25–[…]), HBS-EP buffer; 1:1 Langmuir fit
# [2] = molecular target: FGF2 (UniProt P09038); experiment: as above
# [3] = molecular target: FGF9 (UniProt P31371); experiment: as above; remark: listed apart in the source
# [4] = molecular target: FGF2 (UniProt P09038); experiment: as above; remark: listed apart in the source
# [5] = molecular target: FGF2 (UniProt P09038); conditions: cited from earlier work
Substance,Kd [1] [nM],koff [1] [s⁻¹],kon [1] [M⁻¹ s⁻¹],Kd [2] [nM],koff [2] [s⁻¹],kon [2] [M⁻¹ s⁻¹],Kd [3] [nM],koff [3] [s⁻¹],kon [3] [M⁻¹ s⁻¹],Kd [4] [nM],koff [4] [s⁻¹],kon [4] [M⁻¹ s⁻¹],Kd [5] [nM]
"FGFR3b Loop 2,3 (domain or fragment)",29.9,6.53e-05,2190,13.5,6.69e-05,4980,31.2,9.25e-05,2920,12.3,0.000159,16500,
"FGFR2b Loop 2,3 (from UniProt P21802)",,,,,,,,,,,,,12.8
